In article doi:10.1101/2023.03.09.531510:

What was measured:
Test in all cases: protein-fragment complementation
Arc15 = Arc15 (UniProt P40518)
Sla1 = Sla1 (UniProt P32790)
Ssz1 = Ssz1 (UniProt P38788)
Osh2 = Osh2 (UniProt Q12451)
Hsp104 = Hsp104 (UniProt P31539)
Tif4631 = Tif4631 (UniProt P39935)
Ssa1 = Ssa1 (UniProt P10591)
Ssb2 = Ssb2 (UniProt P40150)
Ssb1 = Ssb1 (UniProt P11484)
Arc18 = Arc18 (UniProt Q05933)
Sla2 = Sla2 (UniProt P33338)
Bmh1 = Bmh1 (UniProt P29311)
Bzz1 = Bzz1 (UniProt P38822)
Rvs167 = Rvs167 (UniProt P39743)
Pan1 = Pan1 (UniProt P32521)
Sbp1 = Sbp1 (UniProt P10080)
Ysc84 = Ysc84 (UniProt P32793)
Hek2 = Hek2 (UniProt P38199)
Mid2 = Mid2 (UniProt P36027)
Sfk1 = Sfk1 (UniProt P35735)
Ygl242c = Ygl242c (UniProt P53066)
Vrp1 = Vrp1 (UniProt P37370)
Ste20 = Ste20 (UniProt Q03497)
Pfk1 = Pfk1 (UniProt P16861)
Pkh2 = molecular target: Pkh2
Smi1 = Smi1 (UniProt P32566)
Arc19 = Arc19 (UniProt P33204)
Nap1 = Nap1 (UniProt P25293)
Myo5 = Myo5 (UniProt Q04439)
Tdh3 = Tdh3 (UniProt P00359)
Las17 = Las17 (UniProt Q12446)
Arc40 = Arc40 (UniProt P38328)
Chc1 = Chc1 (UniProt P22137)
Srv2 = Srv2 (UniProt P17555)
Pab1 = Pab1 (UniProt P04147)
Lsb3 = Lsb3 (UniProt P43603)
Yor1 = Yor1 (UniProt P53049)
Cdc3 = Cdc3 (UniProt P32457)
Cmd1 = Cmd1 (UniProt P06787)
Sac6 = Sac6 (UniProt P32599)
Cdc10 = Cdc10 (UniProt P25342)
Abp1 = Abp1 (UniProt P15891)
Bbc1 = Bbc1 (UniProt P47068)
Aim21 = Aim21 (UniProt P40563)
Syp1 = Syp1 (UniProt P25623)

Chain of UniProt P53066 (P53066 whole entry): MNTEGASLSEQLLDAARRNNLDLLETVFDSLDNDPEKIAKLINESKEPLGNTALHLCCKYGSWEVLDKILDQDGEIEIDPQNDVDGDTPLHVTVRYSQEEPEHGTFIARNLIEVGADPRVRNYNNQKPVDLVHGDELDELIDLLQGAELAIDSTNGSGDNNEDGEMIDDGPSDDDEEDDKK
Chain of UniProt Q12446 (Q12446 whole entry): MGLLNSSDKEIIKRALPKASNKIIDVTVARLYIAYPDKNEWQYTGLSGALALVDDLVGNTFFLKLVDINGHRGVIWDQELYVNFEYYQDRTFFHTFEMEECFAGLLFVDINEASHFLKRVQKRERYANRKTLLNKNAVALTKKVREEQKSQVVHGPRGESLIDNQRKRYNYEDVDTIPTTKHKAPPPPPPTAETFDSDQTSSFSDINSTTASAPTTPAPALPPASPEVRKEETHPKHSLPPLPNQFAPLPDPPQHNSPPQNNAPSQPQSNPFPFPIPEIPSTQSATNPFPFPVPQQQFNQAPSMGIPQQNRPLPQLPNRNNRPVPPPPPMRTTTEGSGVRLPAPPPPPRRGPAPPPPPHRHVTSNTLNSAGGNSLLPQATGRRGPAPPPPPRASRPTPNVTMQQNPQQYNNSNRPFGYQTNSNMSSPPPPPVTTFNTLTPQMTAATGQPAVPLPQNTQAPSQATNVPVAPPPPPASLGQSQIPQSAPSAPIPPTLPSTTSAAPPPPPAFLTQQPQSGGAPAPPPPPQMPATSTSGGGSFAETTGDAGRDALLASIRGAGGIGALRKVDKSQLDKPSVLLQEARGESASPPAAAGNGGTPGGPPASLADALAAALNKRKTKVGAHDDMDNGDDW
Chain of UniProt P32793 (P32793 whole entry): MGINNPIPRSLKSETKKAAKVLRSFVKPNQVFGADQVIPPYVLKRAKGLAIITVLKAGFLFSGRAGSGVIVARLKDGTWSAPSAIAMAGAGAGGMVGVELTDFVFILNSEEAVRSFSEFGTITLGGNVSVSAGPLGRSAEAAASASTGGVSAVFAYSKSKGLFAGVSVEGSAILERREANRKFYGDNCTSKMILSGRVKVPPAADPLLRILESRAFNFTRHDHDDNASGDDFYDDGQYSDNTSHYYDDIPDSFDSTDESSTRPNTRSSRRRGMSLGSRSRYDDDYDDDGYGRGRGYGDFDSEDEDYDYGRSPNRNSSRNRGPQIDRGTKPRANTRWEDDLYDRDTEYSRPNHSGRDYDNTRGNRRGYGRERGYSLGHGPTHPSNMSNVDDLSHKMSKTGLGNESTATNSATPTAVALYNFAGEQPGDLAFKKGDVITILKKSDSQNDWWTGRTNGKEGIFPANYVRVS
Chain of UniProt P32521 (P32521 whole entry): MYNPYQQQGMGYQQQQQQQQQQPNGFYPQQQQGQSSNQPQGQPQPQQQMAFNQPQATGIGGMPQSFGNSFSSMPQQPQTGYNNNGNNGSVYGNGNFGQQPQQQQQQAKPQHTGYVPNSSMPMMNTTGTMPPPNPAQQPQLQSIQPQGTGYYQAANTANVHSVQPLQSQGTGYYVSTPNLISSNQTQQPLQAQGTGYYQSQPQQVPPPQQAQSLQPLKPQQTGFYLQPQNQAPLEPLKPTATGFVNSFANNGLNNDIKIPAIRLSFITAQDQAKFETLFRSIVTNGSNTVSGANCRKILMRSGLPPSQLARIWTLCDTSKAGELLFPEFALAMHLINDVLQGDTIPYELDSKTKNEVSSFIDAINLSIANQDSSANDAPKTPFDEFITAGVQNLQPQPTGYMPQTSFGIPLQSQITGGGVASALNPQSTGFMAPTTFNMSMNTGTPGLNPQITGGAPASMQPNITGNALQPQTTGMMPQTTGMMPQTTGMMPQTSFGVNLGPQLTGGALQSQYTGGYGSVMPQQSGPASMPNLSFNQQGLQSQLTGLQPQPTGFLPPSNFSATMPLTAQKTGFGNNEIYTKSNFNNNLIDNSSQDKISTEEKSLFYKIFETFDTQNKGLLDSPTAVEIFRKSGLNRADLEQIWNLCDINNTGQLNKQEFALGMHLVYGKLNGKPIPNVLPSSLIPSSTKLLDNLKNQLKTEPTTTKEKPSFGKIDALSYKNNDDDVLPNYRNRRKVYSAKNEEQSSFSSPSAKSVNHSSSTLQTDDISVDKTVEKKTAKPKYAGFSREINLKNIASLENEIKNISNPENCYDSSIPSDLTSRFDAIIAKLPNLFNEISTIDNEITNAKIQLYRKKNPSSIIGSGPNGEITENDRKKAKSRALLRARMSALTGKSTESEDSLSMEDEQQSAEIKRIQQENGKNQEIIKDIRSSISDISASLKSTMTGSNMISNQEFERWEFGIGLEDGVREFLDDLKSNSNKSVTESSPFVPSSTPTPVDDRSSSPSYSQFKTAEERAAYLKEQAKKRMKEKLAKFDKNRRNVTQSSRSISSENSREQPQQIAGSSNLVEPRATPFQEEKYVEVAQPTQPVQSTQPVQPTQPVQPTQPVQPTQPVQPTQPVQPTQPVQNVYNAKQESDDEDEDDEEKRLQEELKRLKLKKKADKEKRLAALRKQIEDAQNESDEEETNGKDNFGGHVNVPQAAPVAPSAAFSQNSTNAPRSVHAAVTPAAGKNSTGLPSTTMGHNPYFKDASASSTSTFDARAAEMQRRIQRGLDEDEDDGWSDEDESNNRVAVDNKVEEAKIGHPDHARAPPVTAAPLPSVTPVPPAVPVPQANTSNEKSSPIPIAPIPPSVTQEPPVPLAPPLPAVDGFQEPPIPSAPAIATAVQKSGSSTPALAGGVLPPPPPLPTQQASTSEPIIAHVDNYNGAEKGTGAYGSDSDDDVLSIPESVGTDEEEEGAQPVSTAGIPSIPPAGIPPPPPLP
Chain of UniProt Q03497 (Q03497 whole entry): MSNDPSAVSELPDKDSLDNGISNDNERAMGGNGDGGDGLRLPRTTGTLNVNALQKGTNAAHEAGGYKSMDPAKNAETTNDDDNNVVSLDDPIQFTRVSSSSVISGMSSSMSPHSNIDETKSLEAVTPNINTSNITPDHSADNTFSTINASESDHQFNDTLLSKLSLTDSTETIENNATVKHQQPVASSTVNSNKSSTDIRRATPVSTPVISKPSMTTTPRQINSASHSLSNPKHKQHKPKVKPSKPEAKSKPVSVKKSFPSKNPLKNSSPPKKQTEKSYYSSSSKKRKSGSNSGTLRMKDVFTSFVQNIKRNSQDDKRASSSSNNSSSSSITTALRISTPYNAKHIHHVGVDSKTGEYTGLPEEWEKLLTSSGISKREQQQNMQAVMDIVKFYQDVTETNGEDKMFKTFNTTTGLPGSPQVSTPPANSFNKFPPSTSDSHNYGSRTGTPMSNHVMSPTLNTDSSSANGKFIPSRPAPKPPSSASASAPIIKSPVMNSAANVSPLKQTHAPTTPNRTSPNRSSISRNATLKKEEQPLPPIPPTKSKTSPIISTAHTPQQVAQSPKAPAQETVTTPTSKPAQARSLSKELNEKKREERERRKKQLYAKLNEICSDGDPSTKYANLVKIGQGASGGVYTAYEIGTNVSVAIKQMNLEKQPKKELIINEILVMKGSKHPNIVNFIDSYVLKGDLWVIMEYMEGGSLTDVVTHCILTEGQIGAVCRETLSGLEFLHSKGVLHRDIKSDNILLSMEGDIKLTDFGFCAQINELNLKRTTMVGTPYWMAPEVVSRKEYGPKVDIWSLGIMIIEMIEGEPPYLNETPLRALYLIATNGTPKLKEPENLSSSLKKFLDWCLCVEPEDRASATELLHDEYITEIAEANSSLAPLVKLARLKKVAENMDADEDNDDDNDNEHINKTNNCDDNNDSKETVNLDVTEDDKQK
Chain of UniProt P38822 (P38822 whole entry): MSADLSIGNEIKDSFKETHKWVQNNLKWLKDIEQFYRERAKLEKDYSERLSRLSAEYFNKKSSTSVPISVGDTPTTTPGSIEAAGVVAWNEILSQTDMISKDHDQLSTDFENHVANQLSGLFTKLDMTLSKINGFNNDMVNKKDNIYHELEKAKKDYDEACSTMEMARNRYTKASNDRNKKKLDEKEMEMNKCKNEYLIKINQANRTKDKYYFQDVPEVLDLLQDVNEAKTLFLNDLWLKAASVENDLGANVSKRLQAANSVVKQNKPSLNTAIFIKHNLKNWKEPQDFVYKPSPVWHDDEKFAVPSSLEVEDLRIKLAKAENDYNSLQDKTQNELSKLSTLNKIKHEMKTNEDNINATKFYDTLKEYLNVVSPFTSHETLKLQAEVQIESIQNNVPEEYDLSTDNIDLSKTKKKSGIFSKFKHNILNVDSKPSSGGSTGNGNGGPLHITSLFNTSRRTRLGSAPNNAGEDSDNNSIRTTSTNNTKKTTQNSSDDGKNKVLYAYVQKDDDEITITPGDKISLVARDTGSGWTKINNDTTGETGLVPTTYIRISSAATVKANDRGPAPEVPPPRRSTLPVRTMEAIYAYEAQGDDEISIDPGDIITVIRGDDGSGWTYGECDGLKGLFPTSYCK
Chain of UniProt P36027 (P36027 whole entry): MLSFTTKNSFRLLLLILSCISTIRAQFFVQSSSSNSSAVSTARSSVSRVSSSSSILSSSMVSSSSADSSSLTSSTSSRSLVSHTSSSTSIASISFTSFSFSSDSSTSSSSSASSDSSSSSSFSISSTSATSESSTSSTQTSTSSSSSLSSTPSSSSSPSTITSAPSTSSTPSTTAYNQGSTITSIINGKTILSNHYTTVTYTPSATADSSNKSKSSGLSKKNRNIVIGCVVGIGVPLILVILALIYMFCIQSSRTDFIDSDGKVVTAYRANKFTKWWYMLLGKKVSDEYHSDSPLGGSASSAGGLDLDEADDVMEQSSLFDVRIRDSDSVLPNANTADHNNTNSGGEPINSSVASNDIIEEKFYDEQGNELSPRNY
Chain of UniProt P33204 (P33204 whole entry): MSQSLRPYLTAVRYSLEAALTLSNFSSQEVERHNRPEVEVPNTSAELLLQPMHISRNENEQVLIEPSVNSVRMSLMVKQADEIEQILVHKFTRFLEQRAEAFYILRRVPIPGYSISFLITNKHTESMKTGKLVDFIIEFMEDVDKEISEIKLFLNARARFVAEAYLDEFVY

Myo5 with SH3 AncD (from UniProt Q04439)
interaction score (Arc15): 0.887
interaction score (Sla1): 0.309
interaction score (Ssz1): 0.848
interaction score (Osh2): 0.352
interaction score (Hsp104): 0.77
interaction score (Tif4631): 0.687
interaction score (Ssa1): 0.903
interaction score (Ssb2): 0.938
interaction score (Ssb1): 0.935
interaction score (Arc18): 0.825
interaction score (Sla2): 0.473
interaction score (Bmh1): 0.838
interaction score (Bzz1): 0.701
interaction score (Rvs167): 0.273
interaction score (Pan1): 0.87
interaction score (Sbp1): 0.83
interaction score (Ysc84): 0.318
interaction score (Hek2): 0.351
interaction score (Mid2): 0.827
interaction score (Sfk1): 0.545
interaction score (Ygl242c): 0.949
interaction score (Vrp1): 0.855
interaction score (Ste20): 0.718
interaction score (Pfk1): 0.862
interaction score (Pkh2): 0.0507
interaction score (Smi1): 0.551
interaction score (Arc19): 0.655
interaction score (Nap1): 0.463
interaction score (Myo5): 0.862
interaction score (Tdh3): 0.968
interaction score (Las17): 0.785
interaction score (Arc40): 0.952
interaction score (Chc1): 0.589
interaction score (Srv2): 0.522
interaction score (Pab1): 0.805
interaction score (Lsb3): 0.487
interaction score (Yor1): 0.254
interaction score (Cdc3): 0.353
interaction score (Cmd1): 0.278
interaction score (Sac6): 0.793
interaction score (Cdc10): 0.31
interaction score (Abp1): 0.878
interaction score (Bbc1): 0.562
interaction score (Aim21): 0.647
interaction score (Syp1): 0.338
